Patent EP4725969A1 (Latticon (Suzhou) Biopharmaceuticals Co., Ltd., dated 2024)

Target: T1, recombinant human HER2 extracellular domain protein (human, UniProt P04626 23-652)
T1 construct: range 23-652; Range is printed for the immunogen/panning protein; also called ErbB2; recombinant HER2 protein
Assay: BLI, Protein A capture

Row | Kd | koff | kon | Binder
1 | 8.4 nM | 0.000874 s⁻¹ | 104000 M⁻¹ s⁻¹ | 2126-Hu-H38 (antibody, IgG1, V domains shown, IgG1/Cκ) VH: QVQLVQSGSELKKPGASVKVSCKASGYTFTDYSMHWVRQAPGQGLEWMGWINTETGEPTYADDFKGRFVISLDTSVSTAYLQISSLKAEDTAVYFCVRVGRYDYAMDYWGQGTTVTVSS VL: DIQMTQSPSSLSASVGDRVTITCKASQDVYTAVAWYQQKPGKAPKLLINSASYRYTGVPSRFSGSGSGTDFTLTISSLQPEDFATYYCQQHYSTPPTFGGGTKVEIK
2 | 5.31 nM | 0.000545 s⁻¹ | 103000 M⁻¹ s⁻¹ | 2126-Hu-H37 (antibody, IgG1, V domains shown, IgG1/Cκ) VH: QVQLVQSGSELKKPGASVKVSCKASGYTFTDYSMHWVRQAPGQGLEWMGWINTETGEPTYADDFKGRFSFSLDTSVSTAYLQISSLKAEDTAVYFCVRVGRYDYAMDYWGQGTTVTVSS VL: DIQMTQSPSSLSASVGDRVTITCKASQDVYTAVAWYQQKPGKAPKLLINSASYRYTGVPSRFSGSGSGTDFTLTISSLQPEDFATYYCQQHYSTPPTFGGGTKVEIK
3 | 5.11 nM | 0.000546 s⁻¹ | 107000 M⁻¹ s⁻¹ | 2126-Hu-H42 (antibody, IgG1, V domains shown, IgG1/Cκ) VH: QVQLVQSGSELKKPGASVKVSCKASGYTFTDYSMHWVRQAPGQGLEWMGWINTETGEPTYADDFKGRFVFSLDTSKSTAYLQISSLKAEDTAVYFCVRVGRYDYAMDYWGQGTTVTVSS VL: DIQMTQSPSSLSASVGDRVTITCKASQDVYTAVAWYQQKPGKAPKLLINSASYRYTGVPSRFSGSGSGTDFTLTISSLQPEDFATYYCQQHYSTPPTFGGGTKVEIK
4 | 5.87 nM | 0.000603 s⁻¹ | 103000 M⁻¹ s⁻¹ | 2126-Hu-H35 (antibody, IgG1, V domains shown, IgG1/Cκ) VH: QVQLVQSGSELKKPGASVKVSCKASGYTFTDYSMHWVRQAPGQGLEWMGWINTETGEPTYADDVKGRFVFSLDTSVSTAYLQISSLKAEDTAVYFCVRVGRYDYAMDYWGQGTTVTVSS VL: DIQMTQSPSSLSASVGDRVTITCKASQDVYTAVAWYQQKPGKAPKLLINSASYRYTGVPSRFSGSGSGTDFTLTISSLQPEDFATYYCQQHYSTPPTFGGGTKVEIK
5 | 1.92 nM | 0.0002 s⁻¹ | 104000 M⁻¹ s⁻¹ | 2126-Hu-H40 (antibody, IgG1, V domains shown, IgG1/Cκ) VH: QVQLVQSGSELKKPGASVKVSCKASGYTFTDYSMHWVRQAPGQGLEWMGWINTETGEPTYADDFKGRFVFSRDTSVSTAYLQISSLKAEDTAVYFCVRVGRYDYAMDYWGQGTTVTVSS VL: DIQMTQSPSSLSASVGDRVTITCKASQDVYTAVAWYQQKPGKAPKLLINSASYRYTGVPSRFSGSGSGTDFTLTISSLQPEDFATYYCQQHYSTPPTFGGGTKVEIK
6 | 4.31 nM | 0.000454 s⁻¹ | 105000 M⁻¹ s⁻¹ | 2126-Hu-H34 (antibody, IgG1, V domains shown, IgG1/Cκ) VH: QVQLVQSGSELKKPGASVKVSCKASGYTFTDYSMHWVRQAPGQGLEWMGWINTETGEPTYADNFKGRFVFSLDTSVSTAYLQISSLKAEDTAVYFCVRVGRYDYAMDYWGQGTTVTVSS VL: DIQMTQSPSSLSASVGDRVTITCKASQDVYTAVAWYQQKPGKAPKLLINSASYRYTGVPSRFSGSGSGTDFTLTISSLQPEDFATYYCQQHYSTPPTFGGGTKVEIK
7 | 5.3 nM | 0.000558 s⁻¹ | 105000 M⁻¹ s⁻¹ | 2126-Hu-H36 (antibody, IgG1, V domains shown, IgG1/Cκ) VH: QVQLVQSGSELKKPGASVKVSCKASGYTFTDYSMHWVRQAPGQGLEWMGWINTETGEPTYADDFKGRFTFSLDTSVSTAYLQISSLKAEDTAVYFCVRVGRYDYAMDYWGQGTTVTVSS VL: DIQMTQSPSSLSASVGDRVTITCKASQDVYTAVAWYQQKPGKAPKLLINSASYRYTGVPSRFSGSGSGTDFTLTISSLQPEDFATYYCQQHYSTPPTFGGGTKVEIK
8 | 4.87 nM | 0.000509 s⁻¹ | 105000 M⁻¹ s⁻¹ | 2126-Hu-H39 (antibody, IgG1, V domains shown, IgG1/Cκ) VH: QVQLVQSGSELKKPGASVKVSCKASGYTFTDYSMHWVRQAPGQGLEWMGWINTETGEPTYADDFKGRFVFSVDTSVSTAYLQISSLKAEDTAVYFCVRVGRYDYAMDYWGQGTTVTVSS VL: DIQMTQSPSSLSASVGDRVTITCKASQDVYTAVAWYQQKPGKAPKLLINSASYRYTGVPSRFSGSGSGTDFTLTISSLQPEDFATYYCQQHYSTPPTFGGGTKVEIK

Second part, the binder before the results:

Row | Binder | Kd | koff | kon
9 | 2126-Hu-H22 (antibody, IgG1, V domains shown, IgG1/Cκ) VH: QVQLVQSGGELKKPGASVKVSCKASGYTFTDYSMHWVRQAPGQGLEWMGWINTETGEPTYADDFKGRFVFSLDTSVSTAYLQISSLKAEDTAVYFCVRVGRYDYAMDYWGQGTTVTVSS VL: DIQMTQSPSSLSASVGDRVTITCKASQDVYTAVAWYQQKPGKAPKLLINSASYRYTGVPSRFSGSGSGTDFTLTISSLQPEDFATYYCQQHYSTPPTFGGGTKVEIK | 5.38 nM | 0.000543 s⁻¹ | 101000 M⁻¹ s⁻¹
10 | 2126-Hu-H28 (antibody, IgG1, V domains shown, IgG1/Cκ) VH: QVQLVQSGSELKKPGASVKVSCKASGYTFTDYSMHWVRQAPGQGLEWMGWINTYTGEPTYADDFKGRFVFSLDTSVSTAYLQISSLKAEDTAVYFCVRVGRYDYAMDYWGQGTTVTVSS VL: DIQMTQSPSSLSASVGDRVTITCKASQDVYTAVAWYQQKPGKAPKLLINSASYRYTGVPSRFSGSGSGTDFTLTISSLQPEDFATYYCQQHYSTPPTFGGGTKVEIK | 3.08 nM | 0.00035 s⁻¹ | 114000 M⁻¹ s⁻¹
11 | 2126-Hu-H30 (antibody, IgG1, name in Kabat numbering, V domains shown, IgG1/Cκ) VH: QVQLVQSGSELKKPGASVKVSCKASGYTFTDYSMHWVRQAPGQGLEWMGWINTETGNPTYADDFKGRFVFSLDTSVSTAYLQISSLKAEDTAVYFCVRVGRYDYAMDYWGQGTTVTVSS VL: DIQMTQSPSSLSASVGDRVTITCKASQDVYTAVAWYQQKPGKAPKLLINSASYRYTGVPSRFSGSGSGTDFTLTISSLQPEDFATYYCQQHYSTPPTFGGGTKVEIK | 13.1 nM | 0.0015 s⁻¹ | 115000 M⁻¹ s⁻¹
12 | 2126-Hu-H29 (antibody, IgG1, V domains shown, IgG1/Cκ) VH: QVQLVQSGSELKKPGASVKVSCKASGYTFTDYSMHWVRQAPGQGLEWMGWINTITGEPTYADDFKGRFVFSLDTSVSTAYLQISSLKAEDTAVYFCVRVGRYDYAMDYWGQGTTVTVSS VL: DIQMTQSPSSLSASVGDRVTITCKASQDVYTAVAWYQQKPGKAPKLLINSASYRYTGVPSRFSGSGSGTDFTLTISSLQPEDFATYYCQQHYSTPPTFGGGTKVEIK | 2.61 nM | 0.000246 s⁻¹ | 94300 M⁻¹ s⁻¹
13 | 2126-Hu-H25 (antibody, IgG1, V domains shown, IgG1/Cκ) VH: QVQLVQSGSELKKPGASVKVSCKASGYTFTDYSMHWVRQAPGQGLEWMGWINTNTGEPTYADDFKGRFVFSLDTSVSTAYLQISSLKAEDTAVYFCVRVGRYDYAMDYWGQGTTVTVSS VL: DIQMTQSPSSLSASVGDRVTITCKASQDVYTAVAWYQQKPGKAPKLLINSASYRYTGVPSRFSGSGSGTDFTLTISSLQPEDFATYYCQQHYSTPPTFGGGTKVEIK | 7.57 nM | 0.000749 s⁻¹ | 99000 M⁻¹ s⁻¹
14 | 2126-Hu-H26 (antibody, IgG1, name in Kabat numbering, V domains shown, IgG1/Cκ) VH: QVQLVQSGSELKKPGASVKVSCKASGYTFTDYSMHWVRQAPGQGLEWMGWINTDTGEPTYADDFKGRFVFSLDTSVSTAYLQISSLKAEDTAVYFCVRVGRYDYAMDYWGQGTTVTVSS VL: DIQMTQSPSSLSASVGDRVTITCKASQDVYTAVAWYQQKPGKAPKLLINSASYRYTGVPSRFSGSGSGTDFTLTISSLQPEDFATYYCQQHYSTPPTFGGGTKVEIK | 11.1 nM | 0.00119 s⁻¹ | 107000 M⁻¹ s⁻¹
15 | 2126-Hu-H31 (antibody, IgG1, V domains shown, IgG1/Cκ) VH: QVQLVQSGSELKKPGASVKVSCKASGYTFTDYSMHWVRQAPGQGLEWMGWINTETGDPTYADDFKGRFVFSLDTSVSTAYLQISSLKAEDTAVYFCVRVGRYDYAMDYWGQGTTVTVSS VL: DIQMTQSPSSLSASVGDRVTITCKASQDVYTAVAWYQQKPGKAPKLLINSASYRYTGVPSRFSGSGSGTDFTLTISSLQPEDFATYYCQQHYSTPPTFGGGTKVEIK | 8.81 nM | 0.000942 s⁻¹ | 107000 M⁻¹ s⁻¹
16 | 2126-Hu-H23 (antibody, IgG1, V domains shown, IgG1/Cκ) VH: QVQLVQSGSELKKPGASLKVSCKASGYTFTDYSMHWVRQAPGQGLEWMGWINTETGEPTYADDFKGRFVFSLDTSVSTAYLQISSLKAEDTAVYFCVRVGRYDYAMDYWGQGTTVTVSS VL: DIQMTQSPSSLSASVGDRVTITCKASQDVYTAVAWYQQKPGKAPKLLINSASYRYTGVPSRFSGSGSGTDFTLTISSLQPEDFATYYCQQHYSTPPTFGGGTKVEIK | 5.9 nM | 0.000623 s⁻¹ | 106000 M⁻¹ s⁻¹
17 | 2126-Hu-H24 (antibody, IgG1, V domains shown, IgG1/Cκ) VH: QVQLVQSGSELKKPGASVKVSCKASGYTFTDYAMHWVRQAPGQGLEWMGWINTETGEPTYADDFKGRFVFSLDTSVSTAYLQISSLKAEDTAVYFCVRVGRYDYAMDYWGQGTTVTVSS VL: DIQMTQSPSSLSASVGDRVTITCKASQDVYTAVAWYQQKPGKAPKLLINSASYRYTGVPSRFSGSGSGTDFTLTISSLQPEDFATYYCQQHYSTPPTFGGGTKVEIK | 7.7 nM | 0.00083 s⁻¹ | 108000 M⁻¹ s⁻¹
18 | 2126-Hu-H32 (antibody, IgG1, V domains shown, IgG1/Cκ) VH: QVQLVQSGSELKKPGASVKVSCKASGYTFTDYSMHWVRQAPGQGLEWMGWINTETGSPTYADDFKGRFVFSLDTSVSTAYLQISSLKAEDTAVYFCVRVGRYDYAMDYWGQGTTVTVSS VL: DIQMTQSPSSLSASVGDRVTITCKASQDVYTAVAWYQQKPGKAPKLLINSASYRYTGVPSRFSGSGSGTDFTLTISSLQPEDFATYYCQQHYSTPPTFGGGTKVEIK | 8.96 nM | 0.000998 s⁻¹ | 111000 M⁻¹ s⁻¹
19 | 2126-Hu-H27 (antibody, IgG1, V domains shown, IgG1/Cκ) VH: QVQLVQSGSELKKPGASVKVSCKASGYTFTDYSMHWVRQAPGQGLEWMGWINTGTGEPTYADDFKGRFVFSLDTSVSTAYLQISSLKAEDTAVYFCVRVGRYDYAMDYWGQGTTVTVSS VL: DIQMTQSPSSLSASVGDRVTITCKASQDVYTAVAWYQQKPGKAPKLLINSASYRYTGVPSRFSGSGSGTDFTLTISSLQPEDFATYYCQQHYSTPPTFGGGTKVEIK | 1.67 nM | 0.000164 s⁻¹ | 97900 M⁻¹ s⁻¹
20 | 2126-Hu-H33 (antibody, IgG1, V domains shown, IgG1/Cκ) VH: QVQLVQSGSELKKPGASVKVSCKASGYTFTDYSMHWVRQAPGQGLEWMGWINTETGEPTYADKFKGRFVFSLDTSVSTAYLQISSLKAEDTAVYFCVRVGRYDYAMDYWGQGTTVTVSS VL: DIQMTQSPSSLSASVGDRVTITCKASQDVYTAVAWYQQKPGKAPKLLINSASYRYTGVPSRFSGSGSGTDFTLTISSLQPEDFATYYCQQHYSTPPTFGGGTKVEIK | 2.83 nM | 0.00031 s⁻¹ | 109000 M⁻¹ s⁻¹
